# Assay results: article PMC6883073, “Unraveling Determinants of Affinity Enhancement in Dimeric Aptamers for a Dimeric Protein”
# B1: CT60C (structured_DNA)
# DNA: CAATTGGGCCCGTCCGTATGGTGGGTTTTTTTTTTTTTTTTTTTTTTTTTTTTTTTTTTTTTTTTTTTTTTTTTTTTTTTTTTTTTCAATTGGGCCCGTCCGTATGGTGGGT
# B2: CT0A (structured_DNA)
# DNA: CAATTGGGCCCGTCCGTATGGTGGGTGCCCGTCTTCCAGACAAGAGTGCAGGGC
# B3: nfCT100 (structured_DNA)
# DNA: CAATTGGGCCCGTCCGTATGGTGGGTTTTTTTTTTTTTTTTTTTTTTTTTTTTTTTTTTTTTTTTTTTTTTTTTTTTTTTTTTTTTTTTTTTTTTTTTTTTTTTTTTTTTTTTTTTTTTTTTT
# B4: CT20A (structured_DNA)
# DNA: CAATTGGGCCCGTCCGTATGGTGGGTTTTTTTTTTTTTTTTTTTTTGCCCGTCTTCCAGACAAGAGTGCAGGGC
# B5: CT10A (structured_DNA)
# DNA: CAATTGGGCCCGTCCGTATGGTGGGTTTTTTTTTTTGCCCGTCTTCCAGACAAGAGTGCAGGGC
# B6: AT30C (structured_DNA)
# DNA: GCCCGTCTTCCAGACAAGAGTGCAGGGCTTTTTTTTTTTTTTTTTTTTTTTTTTTTTTCAATTGGGCCCGTCCGTATGGTGGGT
# B7: nfAT100 (structured_DNA)
# DNA: GCCCGTCTTCCAGACAAGAGTGCAGGGCTTTTTTTTTTTTTTTTTTTTTTTTTTTTTTTTTTTTTTTTTTTTTTTTTTTTTTTTTTTTTTTTTTTTTTTTTTTTTTTTTTTTTTTTTTTTTTTTTTTT
# B8: CT20C (structured_DNA)
# DNA: CAATTGGGCCCGTCCGTATGGTGGGTTTTTTTTTTTTTTTTTTTTTCAATTGGGCCCGTCCGTATGGTGGGT
# B9: CT30C (structured_DNA)
# DNA: CAATTGGGCCCGTCCGTATGGTGGGTTTTTTTTTTTTTTTTTTTTTTTTTTTTTTTCAATTGGGCCCGTCCGTATGGTGGGT
# B10: AT0C (structured_DNA)
# DNA: GCCCGTCTTCCAGACAAGAGTGCAGGGCCAATTGGGCCCGTCCGTATGGTGGGT
# B11: AT20A (structured_DNA)
# DNA: GCCCGTCTTCCAGACAAGAGTGCAGGGCTTTTTTTTTTTTTTTTTTTTGCCCGTCTTCCAGACAAGAGTGCAGGGC
# B12: AT60C (structured_DNA)
# DNA: GCCCGTCTTCCAGACAAGAGTGCAGGGCTTTTTTTTTTTTTTTTTTTTTTTTTTTTTTTTTTTTTTTTTTTTTTTTTTTTTTTTTTTTCAATTGGGCCCGTCCGTATGGTGGGT
# B13: CT10C (structured_DNA)
# DNA: CAATTGGGCCCGTCCGTATGGTGGGTTTTTTTTTTTCAATTGGGCCCGTCCGTATGGTGGGT
# B14: AT60A (structured_DNA)
# DNA: GCCCGTCTTCCAGACAAGAGTGCAGGGCTTTTTTTTTTTTTTTTTTTTTTTTTTTTTTTTTTTTTTTTTTTTTTTTTTTTTTTTTTTTGCCCGTCTTCCAGACAAGAGTGCAGGGC
# B15: CT30A (structured_DNA)
# DNA: CAATTGGGCCCGTCCGTATGGTGGGTTTTTTTTTTTTTTTTTTTTTTTTTTTTTTTGCCCGTCTTCCAGACAAGAGTGCAGGGC
# B16: CT0C (structured_DNA)
# DNA: CAATTGGGCCCGTCCGTATGGTGGGTCAATTGGGCCCGTCCGTATGGTGGGT
# B17: AT10C (structured_DNA)
# DNA: GCCCGTCTTCCAGACAAGAGTGCAGGGCTTTTTTTTTTCAATTGGGCCCGTCCGTATGGTGGGT
# B18: AT20C (structured_DNA)
# DNA: GCCCGTCTTCCAGACAAGAGTGCAGGGCTTTTTTTTTTTTTTTTTTTTCAATTGGGCCCGTCCGTATGGTGGGT
# Legend:
# VEGF-165 [1] = biological target: T1, VEGF-165 (UniProt P15692-4 27-191); test: EMSA; PBS + 0.005% Tween 20, pH 7.4 (+50 mM KCl for aptamer B); 2.5 nM aptamer heated at 90 C and cooled, 1 h incubation (temperature not stated, RT?); 7.5% PAGE in 0.5x TB pH 8.3 at 4 C; conditions: protein: recombinant; tags: His-tag; chain copies: 2; label: 5' fluorescein
# VEGF-165 [2] = biological target: T1, VEGF-165; test: EMSA; 10 nM VEGF-165; PBS + 0.005% Tween 20, pH 7.4 (+50 mM KCl for aptamer B); 2.5 nM aptamer heated at 90 C and cooled, 1 h incubation (temperature not stated, RT?); 7.5% PAGE in 0.5x TB pH 8.3 at 4 C; conditions: protein: recombinant; tags: His-tag; chain copies: 2; label: 5' fluorescein
# VEGF-165 [3] = biological target: T1, VEGF-165; test: competition; displaces fC; 50 nM VEGF-165; PBS + 0.005% Tween 20, pH 7.4 (+50 mM KCl for aptamer B); 2.5 nM aptamer heated at 90 C and cooled, 1 h incubation (temperature not stated, RT?); 7.5% PAGE in 0.5x TB pH 8.3 at 4 C; conditions: protein: recombinant; tags: His-tag; chain copies: 2
# VEGF-165 [4] = biological target: T1, VEGF-165; test: competition; displaces fA; 10 nM VEGF-165; PBS + 0.005% Tween 20, pH 7.4 (+50 mM KCl for aptamer B); 2.5 nM aptamer heated at 90 C and cooled, 1 h incubation (temperature not stated, RT?); 7.5% PAGE in 0.5x TB pH 8.3 at 4 C; conditions: protein: recombinant; tags: His-tag; chain copies: 2
# VEGF-165 [5] = biological target: T1, VEGF-165; test: EMSA; 10 nM VEGF-165; PBS + 0.005% Tween 20, pH 7.4 (+50 mM KCl for aptamer B); 2.5 nM aptamer heated at 90 C and cooled, 1 h incubation (temperature not stated, RT?); 7.5% PAGE in 0.5x TB pH 8.3 at 4 C; conditions: protein: recombinant; tags: His-tag; chain copies: 2; label: 5' fluorescein; remark: listed apart in the source
# VEGF-165 [6] = biological target: T1, VEGF-165; test: EMSA; top band only (1 aptamer:2 protein), apparent; PBS + 0.005% Tween 20, pH 7.4 (+50 mM KCl for aptamer B); 2.5 nM aptamer heated at 90 C and cooled, 1 h incubation (temperature not stated, RT?); 7.5% PAGE in 0.5x TB pH 8.3 at 4 C; conditions: protein: recombinant; tags: His-tag; chain copies: 2; label: 5' fluorescein
# VEGF-165 [7] = biological target: T1, VEGF-165; test: EMSA; middle + top bands combined; PBS + 0.005% Tween 20, pH 7.4 (+50 mM KCl for aptamer B); 2.5 nM aptamer heated at 90 C and cooled, 1 h incubation (temperature not stated, RT?); 7.5% PAGE in 0.5x TB pH 8.3 at 4 C; conditions: protein: recombinant; tags: His-tag; chain copies: 2; label: 5' fluorescein
# VEGF-121 = VEGF-121 (UniProt P15692-9 27-147); test: EMSA; up to 333.3 nM VEGF-121; PBS + 0.005% Tween 20, pH 7.4 (+50 mM KCl for aptamer B); 2.5 nM aptamer heated at 90 C and cooled, 1 h incubation (temperature not stated, RT?); 7.5% PAGE in 0.5x TB pH 8.3 at 4 C; conditions: protein: recombinant; tags: His-tag; chain copies: 2; label: 5' fluorescein
# VEGF-165 [8] = biological target: T1, VEGF-165; test: EMSA; curve superimposed on AT10C; PBS + 0.005% Tween 20, pH 7.4 (+50 mM KCl for aptamer B); 2.5 nM aptamer heated at 90 C and cooled, 1 h incubation (temperature not stated, RT?); 7.5% PAGE in 0.5x TB pH 8.3 at 4 C; conditions: protein: recombinant; tags: His-tag; chain copies: 2; label: 5' fluorescein
# T1 sequence (P15692 other isoform, or with tags, fused parts or gaps): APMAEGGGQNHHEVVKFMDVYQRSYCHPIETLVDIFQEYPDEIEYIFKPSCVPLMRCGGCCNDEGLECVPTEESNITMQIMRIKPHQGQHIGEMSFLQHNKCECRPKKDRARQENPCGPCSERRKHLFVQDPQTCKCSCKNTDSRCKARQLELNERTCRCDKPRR
# Chain of VEGF-121 (P15692 other isoform, or with tags, fused parts or gaps): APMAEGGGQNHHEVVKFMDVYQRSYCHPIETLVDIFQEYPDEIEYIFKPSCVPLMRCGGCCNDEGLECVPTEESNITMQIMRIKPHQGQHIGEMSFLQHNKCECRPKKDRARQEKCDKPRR
binder,measurement,setting,value
B1,Kd,VEGF-165 [1],22.4 ± 1 nM
B2,binding result,VEGF-165 [2],binds
B3,binding result,VEGF-165 [3],binds
B4,binding result,VEGF-165 [2],binds
B5,binding result,VEGF-165 [2],binds
B6,binding result,VEGF-165 [2],binds
B7,binding result,VEGF-165 [4],binds
B8,binding signal,VEGF-165 [5],~0.35 fraction bound
CAATTGGGCCCGTCCGTATGGTGGGT (structured_DNA) [fC (SL2-B)],Kd,VEGF-165 [1],37.9 ± 14 nM
B9,binding signal,VEGF-165 [5],~0.35 fraction bound
B10,binding result,VEGF-165 [2],binds
B11,Kd,VEGF-165 [6],145 ± 11.6 nM
same,Kd,VEGF-165 [7],5.5 ± 0.9 nM
GCCCGTCTTCCAGACAAGAGTGCAGGGC (structured_DNA) [fA (+5'GC+3'C)],binding result,VEGF-121,no binding
same,Kd,VEGF-165 [1],9.9 ± 1.3 nM
B12,binding result,VEGF-165 [8],binds
B13,binding signal,VEGF-165 [5],~0.35 fraction bound
B14,Kd,VEGF-165 [1],7 ± 1.5 nM
B15,binding result,VEGF-165 [2],binds
B16,Kd,VEGF-165 [6],74.8 ± 3.5 nM
same,Kd,VEGF-165 [7],13.6 ± 2.7 nM
same,binding signal,VEGF-165 [5],~0.35 fraction bound
B17,Kd,VEGF-165 [6],87.3 ± 4.9 nM
same,Kd,VEGF-165 [7],12.1 ± 1.9 nM
B18,binding result,VEGF-165 [2],binds
